Experiment: soluble on expression in E. coli; label from the status in PepcDB or PDB records

| Sequence | soluble on expression in E. coli |
| --- | --- |
| SGSDVRDLNALLPAVPSLGGGGGCALPVSGAAQWAPVLDFAPPGASAYGSLGGPAPPPAPPPPPPPPPHSFIKQEPSWGGAEPHEEQCLSAFTVHFSGQFTGTAGACRYGPFGPPPPSQASSGQARMFPNAPYLPSCLESQPAIRNQGYSTVTFDGTPSYGHTPSHHAAQFPNHSFKHEDPMGQQGSLGEQQYSVPPPVYGCHTPTDSCTGSQALLLRTPYSSDNLYQMTSQLECMTWNQMNLGATLKG | soluble |
| SHPGIDSMSSNINCENNPFSFYGNPHKSVIIHGKEGTELLKEKGEDCKTFENSQQYFLWCCVQQQMYHYQLLSTAFASYGFEPPRIPGAFPHHIPPIFNGSMKCLRDREVFNQSGFLYVNVSPDTYQETRQEAPVEQRNQWSEKSKTTSKKSICKVLFECTNSSLLENAENRSIFSKQGSGSHVGENSKNPSEDSGQSGRLSQNATAEHNVLEKHLQEEYQMAKNTVNESFDSLKECSAASVIKGSYLLSQVVHIPEDAIEPEIPPDLQGPGGHVFLRMLSRSWRQYKRALEHNE | soluble |
| SIEFSTAITRQIVLDTETTGMNQIGAHYEGHKIIEIGAVEVVNRRLTGNNFHVYLKPDRLVDPEAFGVHGIADEFLLDKPTFAEVADEFMDYIRGAELVIHNAAFDIGFMDYEFSLLKRDIPKTNTFCKVTDSLAVARKMFPGKRNSLDALCARYEIDNSKRTLHGALLDAQILAEVYLAMTGGQTSMATRESG | soluble |
| SIRFVIDREECFSHKAEYEGDTLHVSFVVIKSDSQWHFNEDGVDLVIHGPTGEQIHDFREQISAKHDFVVQKKGVYRFCFTNKSPYHETIDFDVQLGHFAYYDQHAKDEHFTPLMEQISKLEEALYNIQFEQHWLEAQTDRQAIVNENMSKRAVHKALFESFALIGASFLQVYLLRRLFERKLGMSRV | soluble |
| SITKPQNKSAKLVDGELLVKASVESFGLEDEKYWFLVCCELSNGKTRQLKRYYQDFYDLQVQLLDAFPAEAGKLRDAGGQWSKRIMPYIPGPVPYVTNSITKKRKEDLNIYVADLVNLPDYISRSEMVHSLFVVLNNGFDREFERDENGSHHHHHH | soluble |
| SKGFIDQYPNYSVGLGNLRSLKGDTCNLANDVLVETNTNESFLTPLTGTLGDSLTNDDVRGFDPNRISPWAFTPENRPEALGAANSTGDGSDTAAADSDASNTAAGADSDGSAAKADAASDNQEEAAKKKETHRADQGVNGSHSRLPFNLDYRTVPVLGSWTDGKQEIAEATSSWFKLPKANDNTPLVVVSAAGSIKHKDVNGIVENGQKIVLEYGRSNTGGSLGKAEKLGELDLLDSGIDSTWRNLRIPLSDIPDDADVIRIHAKDTSLDPDEWIAFTPPRVPTMDTLANQFPASTPGLLDWAVPLQFPCQRTFNHYAGVAEIPEYRISADAKGKQSGMNFQDFAGGGVTGIAETINSSYELPSYSKNDWVRDWGSIKMYKLRTNSKGEAPDVATVDTETITRSGLWYPGRMNIDTKVTKN | not soluble |
| SKKEHVLHCQFSAWYPFFRGVTIKSVILPLPQNVKDYLLDDGTLVVSGRDDPPTHSQPDSDDEAEEIQWSDDENTATLTAPEFPEFATKVQEAINSLGGSVFPKLNWSAPRDAYWIAMNSSLKCKTLSDIFLLFKSSDFITRDFTQPFIHCTDDSPDPCIEYELVLRKWCELIPGAEFRCFVKENKLIGISQRDYTQYYDHISKQKEEIRRCIQDFFKKHIQYKFLDEDFVFDIYRDSRGKVWLIDFNPFGEVTDSLLFTWEELISENNLNGDFSEVDAQEQDSPAFRCTNSEVTVQPSPYLSYRLPKDFVDLSTGEDAHKLIDFLKLKRNQQEDD | soluble |
| SKKQLDMSQKKTLTIDSELRFDELSLDTVRDFEKLAPFGMDNKKPVFLLKDFKVSQARVMGQNGAHLKLKLEQDGQALDLVAFNMGSQLQEFQQAQHLELAVTLSVNQWNGATTLQ | not soluble |
| SKLNQNTMLVGKKVVLVPYTSEHVPRYHEWMKSEELRHLTASEQLTLQQEYEMQCSWCEDEDKCTFIVLDAEKWQAQPRPPEESCMVGDVNLFLTDLEDPTLGEIEVMIAEPSYRRQGLGTEASLLIMSYGVTKLGLTKFEAKIGQENEPSIRMFQKLHFKQVAMSNVFQEVTLRLAVSEPERKWILEQTSHMEERPYRTRKAEPVTATLSEQKSWNCPLPRPDGCMGDTSAVSSVCARLS | soluble |
| SKLYDINNEIFEDLGAEKRELIQPNDVPQLLKDAIVSVEDRRFYKHIGVDPIRIIGSALSNVKNGGLQGGSTLTQQLIKLSYFSTKESDQTLKRKAQEAWMAVRLEREKSKEEILTYYINKVYMANGFYGMETAAENYYGKHLSELDLPQTALLAGMPQAPNSYDPYTKP | not soluble |
| SKQNPLKRKRNDEITEEKVVLLMAMHKEDDEHQHTKPSPPSWEILCLVGPYMDPESLAVASCVSTTWSKCFSSEDLWKSLPATRHSIFAKAITKEGAKPAWLSYKRLISEAESAAKRRRNNQPAEPKISLSDLVFIVHVSAGSKEAVVVKQGKDLVFGSNERFQIEADVRDSGFTADMKDVSMSWNVVLRNYERMFLMSETVIKSLDSMIGWFTDELPGTKNRYCDGSNLVGEVKPSFNEDVLDKVVFAIADSRNWKSLFVDDVLRYLQCFLVD | soluble |
| SKSGAQTPKSPPEHYVQETPLMFSRCTSVSSLDSFESRSIASSVQSEPCSGMVSGIISPSDLPDSPGQTMPPSRSKTPPPPPQTAQTKREVPKNKAPTAEKRESGPKQAAVNAAVQRVQVLPDADTLLHFATESTPDGFSCSSSLSALSLDEPFIQKDVELRIMPPVQENDNGNETESE | soluble |
| SKVTSLTACLVDQSLRLDCRHENTSSSPIQYEFSLTRETKKHVLFGTVGVPEHTYRSRTNFTSKYNMKVLYLSAFTSKDEGTYTCALHHSGHSPPISSQNVTVLRDKLVKC | soluble |
| SKYGLQDSDEEEEEHPSKTSTKKLKTAPLPPASQTTPLQMALNGKPAPPPQVEKKGQLEHHHHH | soluble |
| SLADHMLKRACEWMRFLGYTVYYPECHYDNDILKTCIEKKLVLLTRDIELYKRYALSVYIDSVNINEQIIQITRQFPPDPGKFMTKCPDCGSDLILMRSNGLDIPDKIKKSFSMVRYCNKCSKAFWPGTHYIKIIEKINRLLK | not soluble |
| SLARMSRRSRGAAGAQSVVKPETPMAQVLHQFNYCPCQYLEQNWIVPKQPWLLNLDGWRDNPNFNLWCLEEWALAPVPETAFNKPHHSLALLPPDALSTLMLTIGGALHSFAMRQVVLKKPKQCLNNVFGLDIARFLIQQGPMLLSQWPKGWQKALPDVMKEDEVERHMLKQGYAWMKFILASSSHDILLRWQFKLDQSLSQVKENTSWLVEEQRDLAYRLTKKIAKQVIPQWFHLLK | soluble |
| SLDDMTEFKNMPKVELHAHLSGSLSPETIKLIMESDETRAEEIMKKYKLEKPENMTGVFDCFPVIHAILRKPEAIRIAIRQTIKEFEEDNCVYLELRTSPKETDFMTYEDYLQVCIESFEAAKHEFPRIKTFLIVSLDRRMPFETAAHILGLIGEAQQRTNVIVGVELSGDPHLDGRRLLKLFVAARRFHGLGITIHLAEVLQNMADVEDYLNLRPDRIGHGTFLHTDPYTEYLTNKYKIPLEICLSSNVYSKTTTNYRNSHFNYWRKRGVPVFICTDDKGVIPGATLTEEYYKAAITFDLSTEELIGINQDALLNSFAYKYNVTDLTETFRKINNNVLD | soluble |
| SLDEITAVVRTAARELVSADGATFVLRENGNCFYADEDAIAPLWKGLRFPLERCISGWVMLNRQAAVIEDIYQDQRIPVEAYRPTFVQSLAMVPIRGEDPIGAIGTYWARRH | not soluble |
| SLDMQHRIRQLFQASIETKQQALEVLPPYIEQASLVMVNALLNEGKILSCGNGGSAGDAQHFSSELLNRFERERPSLPAVALTTDSSTITSIANDYSYNEVFSKQIRALGQPGDVLLAISTSGNSANVIQAIQAAHDREMLVVALTGRDGGGMASLLLPEDVEIRVPSKITARIQEVHLLAIHCLCDLIDRQLFGSEEEG | soluble |
| SLENLATAPVNQIQETISDNCVVIFSKTSCSYCTMAKKLFHDMNVNYKVVELDLLEYGNQFQDALYKMTGERTVPRIFVNGTFIGGATDTHRLHKEGKLLPLVHQCYLKKSKRKEFQ | soluble |
| SLEYNLTTKEVEMVNVTASWDEGIGELFEKVKQNDSERKMANGDDGLFFSNFSLHVTPVLKNISFKLEKGELLAIAGSTGSGKSSLLMMIMGELEPSDGKIKHSGRISYSPQVPWIMPGTIKDNIIFGLSYDEYRYTSVVNACQLEEDITVFPNKDKTVLGDGGITLSGGQRARISLARALYKDADLYLLDSPFSHLDVTTEKDIFESCLCKLMVNKTRILVTSKLEHLKKADKILLLHEGHCYFYGTFSELQGEKPDFSSQLLGSVHFDSFSAERRNSILTETFRRCSVSSGDGAGLGSEG | soluble |
| SLGTLPPELQNTCVARGKLPLLLDLDNTLLHAQAASATGCDVRLQDWIDPYGEPELYRFELPCNRKTYYMKLRPHLRTFLKKLEPFYEMSVYTNATQEYADIVIAILDGNRQLFQDRIVARDSGFRGEASENKAVRRLYEGMDKRCIVAFDDRQNIWTDLPLTHVVKAQHYDFFDSHKTELNAYYPPLSNGIEGMTAPDVLGNRQNED | soluble |
| SLILHAQAKHGKPGLPWLVFLHGFSGDCHEWQEVGEAFADYSRLYVDLPGHGGSAAISVDGFDDVTDLLRKTLVSYNILDFWLVGYSLGGRVAMMAACQGLAGLCGVIVEGGHPGLQNAEQRAERQRSDRQWVQRFLTEPLTAVFADWYQQPVFASLNDDQRRELVALRSNNNGATLAAMLEATSLAVQPDLRANLSARTFAFYYLCGERDSKFRALAAELAADCHVIPRAGHNAHRENPAGVIASLAQILRF | soluble |
| SLINNLSTHSYWPNRGQLEVQGLTVKYTEAGRAVLNDISFSVDGGQSVGLLGRTGSGKSTLLSALLGLNYTEGEMFIDGVSSSSMPLEAWRKAFGVVPQKVFILTGTFRMNLDPYGRYSDDELWRVAEEVGLKSVIEQFPDKLDFELKDGGSVLSNGHKQLMCLARSILSKARILLLDEPSSYLDPITLQVLRKTLKQSFSGCTVILSEHKVEPLLECDSFLMIEKSSVKSYDSIQKLMNEMSDLKQAISPAD | not soluble |
| SLKINQEEDTVSSEKNKLCDNNNNNNMVHTRHIYNVCELNKCLRENKLIPYNNIYKMKHLYLNILDTFDENILKHVNKAHLFIDSVIQKKKNILIHSMAGISRCSSIILSYVSKKNKKGIEYNFNLLKSKYPFAHPNENFYRQLLLYEKMNYTLDGCTDYHNIYK | not soluble |
| SLKNTGYILALCLTASGHVLAHDVWITGKQAENNVTAEIGYGHNFPSKGTIPDRRDFFENPRLYNGKETITLKPASTDYVYKTESASKDNGYVLSTYMKPGYWSRTSSGWKPVSREGRNDVAYCEFVTKYAKSFIPGEQQMPAQLYQSPTGHELEIIPLSDISRFSENVKLKVLYKTSPLAGAIMELDSVSYLTSSRHTHAVEHKHPVHKAELTFVTNEDGIVTVPSLHIGQWLAKVQNKKSFQDKSLCDETVDVATLSFSRN | not soluble |
| SLLCIALALGILVKYQNSQDVSSVKPDYFIDKQEDLISLNKDHYEIGIFQENEFDNNKSVSILEQKIQEIDDLNTSLNEQNLSSVEQNLSLEQNQSLEQNFILKDTNLTQDQNLTFNEDIHLNKISKKPKLAIIIDDMANASQVRGLKALNLKLNPSFFPPDKNHSETPKLALKFDFYMVHLPLAAINYNKPELDTLNPNDSKERIFKKIKQIKKDFKDLRYINNHTGSLFTSNEEAMRKLYEVLKNQNIFFVDSKTIGNSKANKIAKELNVPYIQRDVFLDNEDDVNYVKKQLESAVKLTQKKGFVIAIGHPRKNTFKALEQSKDLLKSVDLVYLSEIYGK | soluble |

From the DeepSol protein solubility set
